Tests used:
[1] = target: CD20 on Raji lymphocyte cells and primary CLL cells (human) (UniProt P11836); experiment: cell-based or functional assay
[2] = target: CD19 on Raji cells, primary CLL cells and melanoma cell lines made to overexpress CD19 (UniProt P15391); experiment: cell-based or functional assay

Substance | specific killing of Raji cells by YTS cells expressing CD16 (ADCC), 3 hours [1] [%] | specific killing of Raji cells 24 hours after coculture, YTS CAR-CD19 cells (non-irradiated, 1000, 2500 or 3000 cGy) [2] [%] | specific killing of Raji cells by YTS cells expressing CAR-CD19 [2] [%] | specific killing of Raji cells, same day (2-3 hours), YTS CAR-CD19 cells irradiated with 1000 cGy [2] [%] | specific killing of Raji cells, same day (2-3 hours), YTS CAR-CD19 cells irradiated with 2500 cGy [2] [%] | specific killing of Raji cells, same day (2-3 hours), non-irradiated YTS CAR-CD19 cells [2] [%]
Rituximab (anti-CD20) (antibody) | > 60 | – | – | – | – | –
anti-CD19 CAR FMC63-28-3z (FMC63 scFV against CD19, CD28 costimulatory domain, CD3zeta signaling domain; Addgene #135991), expressed on YTS cells (from UniProt P10747 180-220; P20963 52-164) | – | > 55 | > 50 | 25 | 23 | 18
